Laboratory results: paper PMC2866327, “Designed Inhibitors of Insulin-Degrading Enzyme Regulate the Catabolism and Activity of Insulin” (PLoS ONE, 2010)
Read-outs that look alike come from different tables or passages of the source. Square brackets hold non-standard residues; d marks the D form. Ends that are not written are not given here. 1Nal = N[C@@H](Cc1cccc2ccccc12)C(=O)O; diphenylalanine = not defined here

Columns and labels:
Conditions in all cases: modification not given
[1] = target: T1, insulin-degrading enzyme (recombinant human IDE) (human), P14735
[2] = target: T1, insulin-degrading enzyme (recombinant …); remark: listed apart in the source
[3] = target: T1, insulin-degrading enzyme (recombinant …); remark: listed apart in the source
[4] = target: T1, insulin-degrading enzyme (recombinant …); remark: listed apart in the source
[5] = target: T1, insulin-degrading enzyme (recombinant …); remark: listed apart in the source
[6] = target: T1, insulin-degrading enzyme (recombinant …); remark: listed apart in the source

FRY [4-fluorophenylalanine] gave a Ki [1] of 7 µM.

With FRY [4-(tert-butyl)-phenylalanine] the Ki [2] was 16 µM.

Binder FRY [3-fluorophenylalanine] has a Ki [3] of 7 µM.

[2‑benzothiophenylalanine]-Arg-Tyr [2-benzothiophenylalanine] gave a Ki [4] of 1.1 µM.

Binder [1Nal]-Arg-Tyr [1-naphthylalanine] has a Ki [5] of 0.7 µM.

With [diphenylalanine]-Arg-Tyr (reading uncertain) [diphenylalanine] the Ki [6] was over 500 µM.
